Reference: US20120077731A1 (Ablynx, published 2012)

Tests used:
Human plasma sIL-6R [1] = target: T1, Human plasma sIL-6R (human, UniProt P08887 20-355, limits assumed); test: plasma potency assay, human plasma, 42 nM IL6; blocked ligand IL-6
T1 construct: also called plasma-derived human IL-6R
T1 sequence (looked up): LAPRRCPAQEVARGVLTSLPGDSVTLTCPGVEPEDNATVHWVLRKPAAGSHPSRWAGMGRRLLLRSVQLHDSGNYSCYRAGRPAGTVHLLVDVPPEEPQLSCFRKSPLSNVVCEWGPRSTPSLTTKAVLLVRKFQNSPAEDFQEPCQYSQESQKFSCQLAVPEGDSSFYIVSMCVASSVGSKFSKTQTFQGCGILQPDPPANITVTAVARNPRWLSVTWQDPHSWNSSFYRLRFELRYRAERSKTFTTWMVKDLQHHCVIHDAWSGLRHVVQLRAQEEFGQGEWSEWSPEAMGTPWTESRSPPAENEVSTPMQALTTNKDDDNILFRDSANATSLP
Procedure: All 5 affinity matured Nanobodies and the sequence optimized Nanobody were also tested in a plasma potency assay. […] TMB was used as substrate.

Human plasma sIL-6R [2] = target: T1, Human plasma sIL-6R; test: plasma potency ELISA, human plasma, normal IL-6 (EC50)
[3] = target: T2, Human membrane IL-6R on cells (human, UniProt P08887 20-468); test: flow cytometry, human PBL, granulocytes donor 2
T2 construct: whole, on cells; also called cell-surface expressed human IL-6R
T2 sequence (looked up): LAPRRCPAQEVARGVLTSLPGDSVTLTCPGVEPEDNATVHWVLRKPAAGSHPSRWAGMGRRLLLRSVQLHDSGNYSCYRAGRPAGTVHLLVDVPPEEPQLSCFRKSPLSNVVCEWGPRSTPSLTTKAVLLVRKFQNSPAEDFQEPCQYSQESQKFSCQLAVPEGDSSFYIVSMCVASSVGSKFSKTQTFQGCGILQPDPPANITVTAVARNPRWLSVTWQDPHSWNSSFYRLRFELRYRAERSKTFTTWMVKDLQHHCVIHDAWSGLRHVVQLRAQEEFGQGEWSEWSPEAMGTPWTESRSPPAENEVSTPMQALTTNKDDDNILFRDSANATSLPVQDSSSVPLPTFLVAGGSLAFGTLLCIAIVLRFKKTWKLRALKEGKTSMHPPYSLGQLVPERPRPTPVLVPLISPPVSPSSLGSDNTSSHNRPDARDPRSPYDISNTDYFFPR
Procedure: (§1) The Nanobodies were incubated in EDTA-treated blood from 2 donors and bound Nanobody was detected by flow cytometry. Lymphocytes, monocytes and granulocytes were gated based on FSC/SSC properties (FIG. 40) and bound Nanobodies were detected in the PE channel.

Mouse IL-6R = target: T3, Mouse IL-6R (mouse, UniProt P22272 20-364, limits assumed); test: competition ELISA: IL6R20A11 (0.4 nM) pre-incubated with a series of recombinant mouse sIL-6R; free IL6R20A11 captured on biotinylated human sIL-6R on neutravidin
T3 construct: also called mouse sIL-6R
T3 sequence (looked up): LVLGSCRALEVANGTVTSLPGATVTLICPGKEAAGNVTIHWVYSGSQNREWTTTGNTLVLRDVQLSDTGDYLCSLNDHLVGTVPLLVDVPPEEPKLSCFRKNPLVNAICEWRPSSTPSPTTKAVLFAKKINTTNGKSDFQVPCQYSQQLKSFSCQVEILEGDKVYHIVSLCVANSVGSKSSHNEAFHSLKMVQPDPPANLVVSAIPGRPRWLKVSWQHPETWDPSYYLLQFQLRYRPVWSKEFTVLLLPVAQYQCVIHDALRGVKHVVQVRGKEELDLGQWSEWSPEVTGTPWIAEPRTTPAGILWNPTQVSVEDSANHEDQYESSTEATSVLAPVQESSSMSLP

[4] = target: T2, Human membrane IL-6R on cells; test: cell-based or functional assay
IL12-p40 = target: T4, IL12-p40 (UniProt P29460 23-328); test: competitive binding ELISA, similar setup (results not shown)
T4 sequence (looked up): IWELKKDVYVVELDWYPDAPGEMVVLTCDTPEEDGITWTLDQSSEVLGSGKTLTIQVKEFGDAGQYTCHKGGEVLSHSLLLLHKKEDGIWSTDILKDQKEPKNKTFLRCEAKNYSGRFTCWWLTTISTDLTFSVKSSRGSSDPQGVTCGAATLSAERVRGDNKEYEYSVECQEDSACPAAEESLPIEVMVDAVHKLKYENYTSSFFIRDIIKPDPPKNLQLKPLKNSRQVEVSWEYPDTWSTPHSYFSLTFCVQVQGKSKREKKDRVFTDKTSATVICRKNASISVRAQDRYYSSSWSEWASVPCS

CLF-1/CLC = target: T5, CLF-1/CLC (UniProt O75462 38-422; Q9UBD9 28-225, limits assumed); test: as above
T5 sequence (looked up) 1: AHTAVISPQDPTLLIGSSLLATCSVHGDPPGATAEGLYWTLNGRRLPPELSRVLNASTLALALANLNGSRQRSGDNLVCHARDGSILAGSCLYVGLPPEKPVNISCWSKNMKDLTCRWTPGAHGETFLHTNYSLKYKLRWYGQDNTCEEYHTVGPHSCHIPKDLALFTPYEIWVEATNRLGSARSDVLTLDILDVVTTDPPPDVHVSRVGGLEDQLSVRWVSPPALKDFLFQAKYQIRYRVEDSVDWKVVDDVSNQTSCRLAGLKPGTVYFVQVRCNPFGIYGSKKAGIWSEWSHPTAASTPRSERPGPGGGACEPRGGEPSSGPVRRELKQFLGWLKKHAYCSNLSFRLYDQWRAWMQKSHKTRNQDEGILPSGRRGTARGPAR
T5 sequence (looked up) 2: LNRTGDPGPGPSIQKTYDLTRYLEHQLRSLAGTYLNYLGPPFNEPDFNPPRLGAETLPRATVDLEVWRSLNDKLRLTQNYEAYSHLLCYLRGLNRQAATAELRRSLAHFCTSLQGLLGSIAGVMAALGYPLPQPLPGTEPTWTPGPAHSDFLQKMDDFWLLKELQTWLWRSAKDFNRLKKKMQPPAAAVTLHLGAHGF

IL-27B = target: T6, IL-27B (UniProt Q14213 21-229, limits assumed); test: as above
T6 sequence (looked up): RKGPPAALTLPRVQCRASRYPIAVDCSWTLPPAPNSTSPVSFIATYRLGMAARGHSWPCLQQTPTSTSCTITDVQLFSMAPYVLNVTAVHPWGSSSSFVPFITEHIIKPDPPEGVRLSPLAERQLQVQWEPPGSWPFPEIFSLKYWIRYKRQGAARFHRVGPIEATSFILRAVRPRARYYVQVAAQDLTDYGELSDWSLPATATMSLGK

[5] = target: T2, Human membrane IL-6R on cells; test: flow cytometry, human PBL, granulocytes donor 1
Procedure: as §1

IC50 (read off the curve) (Human plasma sIL-6R [1]): ~400 pM
IC50 (Human plasma sIL-6R [2]): 198 pM
EC50 [3]: 5610 pM
IC50, TF1 assay [4]: 400 pM
binding result (IL12-p40): no binding (tested: 100 nM)
binding result (CLF-1/CLC): no binding (tested: 100 nM)
binding result (IL-27B): no binding (tested: 100 nM)
EC50 [5]: 2420 pM
B1: PMP20A11 (VHH)
VHH: EVQLVESGGGLVQPGGSLRLSCAASGSVFKINVMAWYRQAPGKGRELVAGIISGGSTSYADSVKGRFTISRDNAKNTLYLQMNSLRPEDTAVYYCAFITTESDYDLGRRYWGQGTLVTVSS
notes: also called IL6R20A11; IL6R300; not shown: c-myc and (His)6 tags
binding result (Mouse IL-6R): no binding (tested: about 200 ng/mL (log conc 2.3))
